# According to patent publication US20100227824A1 (SYMTHERA CANADA, published 2010):
# T1: Eotaxin 3 (CCL26) (UniProt Q9Y258 24-94)
# T1 construct: Bought chemokine
# T1 sequence (looked up): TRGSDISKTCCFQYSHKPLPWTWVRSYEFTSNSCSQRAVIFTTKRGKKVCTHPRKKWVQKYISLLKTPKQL
# T2: BCA-1 (CXCL13) (UniProt O43927 23-109)
# T2 construct: Bought chemokine
# T2 sequence (looked up): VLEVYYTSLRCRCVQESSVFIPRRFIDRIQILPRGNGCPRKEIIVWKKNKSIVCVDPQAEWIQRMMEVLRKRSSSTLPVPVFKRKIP
# T3: Eotaxin 2 (CCL24) (UniProt O00175 27-104, limits assumed)
# T3 construct: Bought chemokine
# T3 sequence (looked up): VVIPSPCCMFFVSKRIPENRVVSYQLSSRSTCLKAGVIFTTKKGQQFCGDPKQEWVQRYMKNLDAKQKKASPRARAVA
# T4: MDC(69aa) (CCL22) (UniProt O00626 25-93)
# T4 construct: Bought chemokine
# T4 sequence (looked up): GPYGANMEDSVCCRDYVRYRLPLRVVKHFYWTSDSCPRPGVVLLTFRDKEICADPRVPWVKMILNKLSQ
# T5: MCP-2 (CCL8) (UniProt P80075 24-99)
# T5 construct: Bought chemokine
# T5 sequence (looked up): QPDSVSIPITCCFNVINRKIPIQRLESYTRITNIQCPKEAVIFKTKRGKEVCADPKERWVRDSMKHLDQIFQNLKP
# T6: Exodus-2 (CCL21) (UniProt O00585 24-134)
# T6 construct: Bought chemokine
# T6 sequence (looked up): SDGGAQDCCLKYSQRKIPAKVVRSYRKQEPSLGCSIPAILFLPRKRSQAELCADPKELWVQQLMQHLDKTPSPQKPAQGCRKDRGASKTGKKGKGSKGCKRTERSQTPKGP
# T7: Lymphotactin (XCL-1) (UniProt P47992 23-114, limits assumed)
# T7 construct: Bought chemokine
# T7 sequence (looked up): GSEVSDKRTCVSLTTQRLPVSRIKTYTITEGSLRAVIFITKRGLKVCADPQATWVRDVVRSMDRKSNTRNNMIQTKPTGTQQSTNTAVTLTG
# T8: I-309 (CCL1) (UniProt P22362 23-96, limits assumed)
# T8 construct: Bought chemokine
# T8 sequence (looked up): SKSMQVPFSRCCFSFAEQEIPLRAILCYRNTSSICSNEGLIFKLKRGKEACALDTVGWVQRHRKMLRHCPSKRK
# T9: CTAC (CCL27) (UniProt Q9Y4X3 25-112)
# T9 construct: Bought chemokine
# T9 sequence (looked up): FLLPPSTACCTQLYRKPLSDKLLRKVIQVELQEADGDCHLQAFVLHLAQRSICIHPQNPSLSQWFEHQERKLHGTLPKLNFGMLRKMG
# T10: Mig (CXCL9) (UniProt Q07325 23-125)
# T10 construct: Bought chemokine
# T10 sequence (looked up): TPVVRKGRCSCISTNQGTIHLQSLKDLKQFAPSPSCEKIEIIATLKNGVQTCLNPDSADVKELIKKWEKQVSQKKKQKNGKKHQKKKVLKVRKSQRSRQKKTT
# T11: IP-10 (CXCL10) (UniProt P02778 22-98)
# T11 construct: Bought chemokine
# T11 sequence (looked up): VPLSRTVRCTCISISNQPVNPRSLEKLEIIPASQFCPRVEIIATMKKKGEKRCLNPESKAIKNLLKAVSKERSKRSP
# T12: TECK (CCL25) (UniProt O15444 24-150)
# T12 construct: Bought chemokine
# T12 sequence (looked up): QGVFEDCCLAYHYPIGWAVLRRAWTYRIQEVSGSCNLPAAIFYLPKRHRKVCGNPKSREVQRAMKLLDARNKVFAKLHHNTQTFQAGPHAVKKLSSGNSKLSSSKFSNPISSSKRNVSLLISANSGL
# T13: I-TAC (CXCL11) (UniProt O14625 22-94)
# T13 construct: Bought chemokine; also called I-TACK
# T13 sequence (looked up): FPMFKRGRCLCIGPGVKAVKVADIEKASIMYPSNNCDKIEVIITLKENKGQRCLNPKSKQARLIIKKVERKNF
# Tests used:
# Assay in all cases: micro-array, phage-presented peptide on printed CK
# [1] = target: T14, MCP-4 (CCL13) (UniProt Q99616 24-98)
# T14 construct: Bought chemokine
# T14 sequence (Q99616 24-98 limits assumed): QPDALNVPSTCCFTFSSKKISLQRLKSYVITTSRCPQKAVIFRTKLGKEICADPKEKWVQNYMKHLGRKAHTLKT
# Outline: (§1)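 Chemokine was printed at 25 and 50 μg/ml onto protein microarray slides, with BSA and M13 phage controls, then blocked 1 h at room temperature.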
# [2] = target: T1, Eotaxin 3 (CCL26)
# Outline: as §1
# [3] = target: T15, MIP-3α (CCL20) (UniProt P78556 27-96)
# T15 construct: Bought chemokine
# T15 sequence (P78556 27-96 limits assumed): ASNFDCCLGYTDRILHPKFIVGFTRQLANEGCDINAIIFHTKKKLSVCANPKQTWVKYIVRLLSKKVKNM
# Outline: as §1
# [4] = target: T2, BCA-1 (CXCL13)
# Outline: as §1
# [5] = target: T16, SDF-1β (CXCL12) (UniProt P48061 22-93)
# T16 construct: Beta isoform of CXCL12; also called SDFβ
# T16 sequence (P48061 22-93 limits assumed): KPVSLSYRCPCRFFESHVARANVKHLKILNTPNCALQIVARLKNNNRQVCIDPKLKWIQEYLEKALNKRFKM
# Outline: as §1
# [6] = target: T17, MCP-1 (CCL2) (UniProt P13500 24-99)
# T17 construct: Bought chemokine
# T17 sequence (P13500 24-99 limits assumed): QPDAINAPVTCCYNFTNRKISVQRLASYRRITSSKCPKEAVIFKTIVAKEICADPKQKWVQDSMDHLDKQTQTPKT
# Outline: as §1
# [7] = target: T3, Eotaxin 2 (CCL24)
# Outline: as §1
# [8] = target: T4, MDC(69aa) (CCL22)
# Outline: as §1
# [9] = target: T5, MCP-2 (CCL8)
# Outline: as §1
# [10] = target: T6, Exodus-2 (CCL21)
# Outline: as §1
# [11] = target: T7, Lymphotactin (XCL-1)
# Outline: as §1
# [12] = target: T8, I-309 (CCL1)
# Outline: as §1
# [13] = target: T18, Eotaxin (CCL11) (UniProt P51671 24-97)
# T18 construct: Bought chemokine
# T18 sequence (P51671 24-97 limits assumed): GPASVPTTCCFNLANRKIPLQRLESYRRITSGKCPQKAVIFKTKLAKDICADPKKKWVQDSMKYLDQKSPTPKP
# Outline: as §1
# [14] = target: T9, CTAC (CCL27)
# Outline: as §1
# [15] = target: T10, Mig (CXCL9)
# Outline: as §1
# [16] = target: T19, SDF-1α (CXCL12) (UniProt P48061-2 22-89)
# T19 construct: Alpha isoform of CXCL12; also called SDFα
# T19 sequence (P48061 22-89 limits assumed): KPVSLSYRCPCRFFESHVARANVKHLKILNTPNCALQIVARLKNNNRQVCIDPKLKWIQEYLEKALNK
# Outline: as §1
# [17] = target: T11, IP-10 (CXCL10)
# Outline: as §1
# [18] = target: T12, TECK (CCL25)
# Outline: as §1
# [19] = target: T13, I-TAC (CXCL11)
# Outline: as §1
binder,measurement,setting,value
WVFGAAMCK [Phage-Presented Peptide 8.8 (Ph-p8.8)],Relative Fluorescence Units (RFU),[1],> 15000 RFU
same,binding result,[2],binds
same,binding result,[3],binds
same,binding result,[4],binds
same,binding result,[5],binds
same,Relative Fluorescence Units (RFU),[6],> 15000 RFU
same,binding result,[7],binds
same,binding result,[8],binds
same,Relative Fluorescence Units (RFU),[9],> 15000 RFU
same,binding result,[10],binds
same,binding result,[11],binds
same,binding result,[12],binds
same,binding result,[13],binds
same,binding result,[14],binds
same,binding result,[15],binds
same,binding result,[16],binds
same,binding result,[17],binds
same,binding result,[18],binds
same,binding result,[19],binds
